Read-outs that look alike come from different tables or passages of the source. Primed or numbered codes have the meaning given here. Where no end group is shown, it is not given here. [ ]: non-standard residue; d: D form. DBCO‑MMAE = DBCO-PEG3-glutamic acid-valine-citrulline-p-aminobenzylcarbamate-MMAE (DBCO-PEG3-EVC-PABC-MMAE); Lys(N3)′ = its azide, alkyne or alkene has reacted where a group follows in round brackets
Columns and labels:
NCI-H358 = experiment: in vitro cytotoxicity (MTT); assay type: cell-based, human
Experimental: (§1) We utilized two different incubation methods.
(§2) We then incubated the human cell lines with ADC, and equivalent concentrations of MMAE and native Ab for both 48 hours and 72 hours, the results of which can be seen in FIG. 13A-13E. We expected the results to correlate with the GPR87 expression we observed by flow cytometry. For the normal cell lines, this was the case. As detailed in FIG. 14, the line that was most sensitive to the ADC were the NHLFs, followed by the BEAS-2Bs, and the line with the lowest GPR87 expression, the HUVECs, had the highest IC50 after 72 hours. However, both the NSCLC cell lines had relatively high IC50s given the GPR87 expression status of these lines.
(§3) In comparison, NCI-H358 and NCI-H520 see approximately a 4-fold or 2-fold decrease in IC50, respectively, between the two time points. On the other hand, the NCI-H520 line has almost a 10-fold increase in MMAE IC50 at 72 hours compared to 48 hours. The results are likely because the cell lines are different sizes and morphologies and therefore are at different confluencies when plated at the same number of cells per well and are therefore likely to be in different parts of their log growth phase during treatment. For example, the NSCLC lines are typically at very low confluency at a plating density of 5,000 cells per well and may not reach log phase growth until later in the assay. As MMAE affects actively dividing cells, this will affect the results of the assay. While 72 hours was not the optimized end time point for all five cell lines, in order to have a standardized cell plating density, and therefore same ADC:cell ratio, going past 72 hours for some of the cell lines would lead to confluency or death in untreated control cells, which would also confound results. Thus, we incubated the two NSCLC lines for longer periods of time to allow the control cells to become more confluent by the assay endpoint, and to see how this would affect the ADC IC50.
(§4) Standard cytotoxicity assays, like the MTT assays ran here, measure or rather, approximate the cell number at an end point and compare to control untreated cells. Effectively what is measured is a comparison between growth rates. When comparing the efficacy of a drug, particularly a mitotic inhibitor, among different cell lines, division rate differences due to biology, media additives, or seeding density can have a dramatic effect on the IC50, an issue brought up by Hafner et al. They reported with both modeling and in vitro assays how using the IC50 as a metric can actually mask the true mechanism of a drug, for example the microtubule inhibitor paclitaxel. […] GR values indicate whether a drug inhibits growth (0<GR<1), is cytostatic (GR=0) or cytotoxic (GR<0). To calculate this parameter, one needs cell count data for at least two different time points and compares experimental growth rates to the growth rate of control cells. […] Consequently, we reviewed the data at our two time points to perform a similar analysis. We plated at the same seeding density for both the 48 and 72 hour time points. As MTT is an endpoint assay rather than a kinetic assay like MTS, we can use MTT signal as a proxy for cell count. […] Therefore, we excluded this cell line from our analysis. We are technically assessing the effect the ADC or equivalent MMAE has on the growth rate of cells at 60 hours, as we are measuring at t=x±delta t, with x being 60 and delta t being 12 hours. Ideally, we would assess an earlier time point or even multiple time points. […] (FIGS. 19A-19D). Conversely, both NCI-H520 and NCI-H358 are cytotoxic (GR<0) at higher concentrations of ADC at this time point. […] While the GR50 data is still not in agreement with GPR87 expression, it does indicate that this type of analysis at other, earlier, time points is useful in assessing the dynamics of ADC and MMAE cytotoxicity in these cell lines.

GPR87 antigen = GPR87 antigen (Homo sapiens, UniProt Q9BY21); experiment: custom ELISA binding analysis of αGPR87 antibody, Ab-CCK and ADC
Sequence of GPR87 antigen (Q9BY21 whole entry): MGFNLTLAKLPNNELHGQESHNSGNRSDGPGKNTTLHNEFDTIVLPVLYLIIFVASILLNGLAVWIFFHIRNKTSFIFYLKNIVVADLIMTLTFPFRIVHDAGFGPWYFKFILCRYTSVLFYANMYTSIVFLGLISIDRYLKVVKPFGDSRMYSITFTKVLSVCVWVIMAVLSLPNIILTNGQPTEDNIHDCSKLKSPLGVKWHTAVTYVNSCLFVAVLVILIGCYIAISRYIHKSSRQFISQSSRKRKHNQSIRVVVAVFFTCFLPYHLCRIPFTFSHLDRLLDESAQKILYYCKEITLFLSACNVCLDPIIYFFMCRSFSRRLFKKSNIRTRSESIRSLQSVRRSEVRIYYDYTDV
Experimental: With the CCE-MMAE peptide successfully synthesized and previous optimization of the antibody loading process with the AFC, it was facile to translate the method to formulating the ADC. Using a similar custom ELISA as before, but with a secondary antibody recognizing mouse antibody, it was contemplated whether the loading of CCE-MMAE, the 50° C. incubation, or even the expression of the peptide tails affected the binding affinity of the antibody. (FIG. 8C) What was found was initially surprising, which was that by adding the peptide tails onto the antibody, the Kd was affected. […] However, if it was taken into consideration the SEC data showing the larger aggregates formed by these antibodies, the results are more consistent. The original analysis was done by using the wt/vol concentration of the antibodies. However, if there are larger aggregates forming such as hexamers of Ab-CCK or hexamers, trimers, and monomers of the ADC, then equivalent wt/vol concentrations will vary by molarity. If it was assumed the Ab-CCK exists as a hexamer and therefore at the same wt/vol concentration as the native Ab is at one sixth the molar concentration, the binding data can be reanalyzed with these adjusted molarities. Similarly, it can be assumed the ADC is forming on average trimers and adjust the molar concentration by one third accordingly. The resulting curves are similar, with the Ab, Ab-CCK, and ADC having Kds of approximately 0.43, 0.46, and 0.41 nM, respectively.

NIH-3T3 = experiment: in vitro cytotoxicity, negative control line; conditions: NIH-3T3, 10 μg/ml ADC, 72 hours
Experimental: We incubated NIH-3T3s with up to 10 μg/ml of ADC (67 nM, equivalent to 96 ng/ml of MMAE) along with the native antibody and MMAE alone at equivalent concentrations.

NCI-H520 = experiment: in vitro cytotoxicity (MTT); assay type: cell-based, human
Experimental: as §1, §2, §3, §4

[1] = system: NCI-H358, NCI-H520, NHLF, BEAS-2B, HUVEC; experiment: in vitro cytotoxicity, comparison of ADC and MMAE over the five cell lines; assay type: cell-based, human; conditions: 48 and 72 hours
Experimental: as §2
We investigated analyzing other parameters, such as the area under the curve (AUC) for the five cell lines as we noted that the hill slope was variable between different cell lines and between ADC and MMAE treatments. By assessing the AUC, we could interpret the total cytotoxicity of the treatment over all concentrations tested. Rather than the large (>100) fold differences in ADC and MMAE IC50s observed in FIG. 14, FIG. 16 indicates the difference in toxicity between the two are less pronounced, on the order of 1-3-fold difference. However, comparing the toxicity of the ADC across the cell lines, the relationships, or lack thereof, between toxicity and GPR87 expression remain largely the same.

BEAS-2B = experiment: in vitro cytotoxicity (MTT); assay type: cell-based, human
Experimental: as §1, §2, §4

NHLF = experiment: in vitro cytotoxicity (MTT); assay type: cell-based, human
Experimental: as §1, §2, §4

[2] = Ab-CCK assumed hexamer, ADC assumed trimer (from SEC), read-out: Kd, reanalyzed with adjusted molarities
[3] = ELISA, analysed by wt/vol concentration, read-out: Kd

## CCE-MMAE: CCE peptide (SEQ ID NO: 3) conjugated at azido lysine with DBCO-MMAE (MKLEEIVSELEEIVSELEEIV[Lys(N3)′](DBCO‑MMAE)ELEEIVYEVGER)
NCI-H358; NCI-H358, 72 hours, concentrations equivalent to ADC
  toxicity: Toxicity was only observed at the highest concentration

B1: Ab: native murine αhGPR87 IgG1 antibody (331CL), plasmids from Creative Biolabs (antibody)
heavy: EVQLQQSGPDLVKPGASMKISCKASGYSFTDYTMHWVKQSHGKNFEWIGLINPYNDGTTYNQKFKGKATLTVDKSSSTAYMELLSLTSEDSAVYYCASLDYWGQGTSVTVSSAKTTPPSVYPLAPGSAAQTNSMVTLGCLVKGYFPEPVTVTWNSGSLSSGVHTFPAVLQSDLYTLSSSVTVPSSTWPSETVTCNVAHPASSTKVDKKIVPRDCGCKPCICTVPEVSSVFIFPPKPKDVLTITLTPKVTCVVVDISKDDPEVQFSWFVDDVEVHTAQTQPREEQFNSTFRSVSELPIMHQDWLNGKEFKCRVNSAAFPAPIEKTISKTKGRPKAPQVYTIPPPKEQMAKDKVSLTCMITDFFPEDITVEWQWNGQPAENYKNTQPIMDTDGSYFVYSKLNVQKSNWEAGNTFTCSVLHEGLHNHHTEKSLSHSPGK
light: DVVMTQTPLSLPVSLGDQASISCRSSQSLVHSSGNTYLHWYLQKPGQSPKLLIYKVSNRFSGVPDRFSGSGSGTDFTLKISRVEAEDLGVYFCSQSTHVPYTFGGGTKLEIKRADAAPTVSIFPPSSEQLTSGGASVVCFLNNFYPKDINVKWKIDGSERQNGVLNSWTDQDSKDSTYSMSSTLTLTKDEYERHNSYTCEATHKTSTSPIVKSFNRNEC
GPR87 antigen; [2]
  Kd: ~0.43 nM
GPR87 antigen; [3]
  Kd: 0.4 nM

B2: Ab-CCK: αGPR87 antibody 331CL with CCK peptide on the heavy chain C termini via a pentaglycine linker (antibody)
heavy: EVQLQQSGPDLVKPGASMKISCKASGYSFTDYTMHWVKQSHGKNFEWIGLINPYNDGTTYNQKFKGKATLTVDKSSSTAYMELLSLTSEDSAVYYCASLDYWGQGTSVTVSSAKTTPPSVYPLAPGSAAQTNSMVTLGCLVKGYFPEPVTVTWNSGSLSSGVHTFPAVLQSDLYTLSSSVTVPSSTWPSETVTCNVAHPASSTKVDKKIVPRDCGCKPCICTVPEVSSVFIFPPKPKDVLTITLTPKVTCVVVDISKDDPEVQFSWFVDDVEVHTAQTQPREEQFNSTFRSVSELPIMHQDWLNGKEFKCRVNSAAFPAPIEKTISKTKGRPKAPQVYTIPPPKEQMAKDKVSLTCMITDFFPEDITVEWQWNGQPAENYKNTQPIMDTDGSYFVYSKLNVQKSNWEAGNTFTCSVLHEGLHNHHTEKSLSHSPGKGGGGGMKLKKIKSVLKKIKSVLKKIKSVLKKIKSVVGER
light: DVVMTQTPLSLPVSLGDQASISCRSSQSLVHSSGNTYLHWYLQKPGQSPKLLIYKVSNRFSGVPDRFSGSGSGTDFTLKISRVEAEDLGVYFCSQSTHVPYTFGGGTKLEIKRADAAPTVSIFPPSSEQLTSGGASVVCFLNNFYPKDINVKWKIDGSERQNGVLNSWTDQDSKDSTYSMSSTLTLTKDEYERHNSYTCEATHKTSTSPIVKSFNRNEC
GPR87 antigen; [2]
  Kd: ~0.46 nM
GPR87 antigen; [3]
  Kd: 2.8 nM

B3: ADC (conjugate)
heavy: EVQLQQSGPDLVKPGASMKISCKASGYSFTDYTMHWVKQSHGKNFEWIGLINPYNDGTTYNQKFKGKATLTVDKSSSTAYMELLSLTSEDSAVYYCASLDYWGQGTSVTVSSAKTTPPSVYPLAPGSAAQTNSMVTLGCLVKGYFPEPVTVTWNSGSLSSGVHTFPAVLQSDLYTLSSSVTVPSSTWPSETVTCNVAHPASSTKVDKKIVPRDCGCKPCICTVPEVSSVFIFPPKPKDVLTITLTPKVTCVVVDISKDDPEVQFSWFVDDVEVHTAQTQPREEQFNSTFRSVSELPIMHQDWLNGKEFKCRVNSAAFPAPIEKTISKTKGRPKAPQVYTIPPPKEQMAKDKVSLTCMITDFFPEDITVEWQWNGQPAENYKNTQPIMDTDGSYFVYSKLNVQKSNWEAGNTFTCSVLHEGLHNHHTEKSLSHSPGKGGGGGMKLKKIKSVLKKIKSVLKKIKSVLKKIKSVVGER
light: DVVMTQTPLSLPVSLGDQASISCRSSQSLVHSSGNTYLHWYLQKPGQSPKLLIYKVSNRFSGVPDRFSGSGSGTDFTLKISRVEAEDLGVYFCSQSTHVPYTFGGGTKLEIKRADAAPTVSIFPPSSEQLTSGGASVVCFLNNFYPKDINVKWKIDGSERQNGVLNSWTDQDSKDSTYSMSSTLTLTKDEYERHNSYTCEATHKTSTSPIVKSFNRNEC
peptide: MKLEEIVSELEEIVSELEEIVKELEEIVYEVGER
NIH-3T3
  viability: ~76%
GPR87 antigen; [2]
  Kd: ~0.41 nM
GPR87 antigen; [3]
  Kd: ~1.3 nM
NCI-H520; NCI-H520
  decrease in IC50 between 48 and 72 hours: ~2 fold
NCI-H520; NCI-H520, ADC prepared at 50° C.
  IC50: 3 nM
NCI-H520; NCI-H520, ADC prepared at RT
  IC50: 4.9 nM
NCI-H520; NCI-H520, higher concentrations of ADC, 60 hours
  normalized growth rate inhibition (GR): < 0
NCI-H520; NCI-H520, incubation 48, 72 and 168 hours, first value of 'from ... to'
  IC50, start of time course: 12.87 ng/ml of MMAE equivalent ADC
NCI-H520; NCI-H520, longer incubation (up to 168 hours), last value of 'from ... to'
  IC50, end of time course: 5.24 ng/ml of MMAE equivalent ADC
NCI-H358; NCI-H358
  decrease in IC50 between 48 and 72 hours: ~4 fold
  toxicity, 24 hours treatment + 48 hours fresh media vs 72 hours treatment: no significant difference between the two treatment groups
NCI-H358; NCI-H358, higher concentrations of ADC, 60 hours
  normalized growth rate inhibition (GR): < 0
NCI-H358; NCI-H358, incubation 48, 72 and 120 hours, first value of 'from ... to'
  IC50, start of time course: 9.11 ng/ml of MMAE equivalent ADC
NCI-H358; NCI-H358, longer incubation (up to 120 hours), last value of 'from ... to'
  IC50, end of time course: 8.69 ng/ml of MMAE equivalent ADC
[1]; FIG. 14
  fold differences in ADC and MMAE IC50s: > 100 fold
[1]; FIG. 16
  fold difference in toxicity (AUC) between ADC and MMAE: 1-3 fold
BEAS-2B; ADC prepared at 50° C.
  IC50: 6.8 nM
BEAS-2B; ADC prepared at RT
  IC50: 5.3 nM
BEAS-2B; at 60 hours
  GR-based effect: cytotoxic
NHLF
  GR50: do not reach that value
  difference between 48 and 72 hour IC50s: almost identical
NHLF; ADC prepared at 50° C.
  IC50: 0.8 nM
NHLF; ADC prepared at RT
  IC50: 0.8 nM
